T1: DFNB31_3, Q9P202
T1 sequence (Q9P202 811-907, limits assumed, looked up): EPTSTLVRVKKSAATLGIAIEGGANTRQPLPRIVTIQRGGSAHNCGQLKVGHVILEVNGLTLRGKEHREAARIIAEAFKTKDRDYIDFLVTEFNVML

T2: PDZD2_2, O15018
T2 sequence (O15018 329-429, limits assumed, looked up): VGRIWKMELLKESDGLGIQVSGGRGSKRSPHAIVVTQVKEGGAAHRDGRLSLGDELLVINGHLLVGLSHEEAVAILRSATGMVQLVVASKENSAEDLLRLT

T3: LRRC7, Q96NW7
T3 sequence (Q96NW7 1440-1537, limits assumed, looked up): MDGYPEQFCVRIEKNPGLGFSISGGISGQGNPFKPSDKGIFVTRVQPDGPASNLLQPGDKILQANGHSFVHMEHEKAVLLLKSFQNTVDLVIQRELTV

T4: LIN7B, Q9HAP6
T4 sequence (Q9HAP6 88-185, limits assumed, looked up): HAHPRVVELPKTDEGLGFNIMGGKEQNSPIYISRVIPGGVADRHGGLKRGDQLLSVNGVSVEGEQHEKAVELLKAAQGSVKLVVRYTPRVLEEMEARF

T5: APBA3_1, O96018
T5 sequence (O96018 389-490, limits assumed, looked up): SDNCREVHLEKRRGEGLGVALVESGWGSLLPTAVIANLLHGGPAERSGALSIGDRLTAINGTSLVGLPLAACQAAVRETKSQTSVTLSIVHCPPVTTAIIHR

T6: SIPA1L2, Q9P2F8
T6 sequence (Q9P2F8 945-1036, limits assumed, looked up): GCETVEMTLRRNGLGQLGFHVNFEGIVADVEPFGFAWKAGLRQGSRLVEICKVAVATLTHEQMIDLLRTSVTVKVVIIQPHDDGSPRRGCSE

T7: NHERF3_3, Q5T2W1
T7 sequence (Q5T2W1 238-333, limits assumed, looked up): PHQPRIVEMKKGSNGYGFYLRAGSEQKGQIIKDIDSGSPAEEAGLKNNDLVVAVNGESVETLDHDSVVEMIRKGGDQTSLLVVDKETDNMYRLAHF

T8: APBA1_1, Q02410
T8 sequence (Q02410 651-752, limits assumed, looked up): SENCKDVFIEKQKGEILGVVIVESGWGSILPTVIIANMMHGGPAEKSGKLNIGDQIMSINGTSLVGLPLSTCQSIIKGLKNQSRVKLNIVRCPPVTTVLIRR

T9: GRIP1_4, Q9Y3R0
T9 sequence (Q9Y3R0 467-571, limits assumed, looked up): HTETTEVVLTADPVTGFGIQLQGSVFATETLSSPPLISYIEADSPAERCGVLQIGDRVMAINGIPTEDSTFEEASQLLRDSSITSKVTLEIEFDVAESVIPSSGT

T10: TIAM2, Q8IVF5
T10 sequence (Q8IVF5 885-986, limits assumed, looked up): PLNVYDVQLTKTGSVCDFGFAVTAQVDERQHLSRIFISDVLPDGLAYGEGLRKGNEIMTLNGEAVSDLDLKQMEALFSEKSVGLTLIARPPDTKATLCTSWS

T11: MPDZ_10, O75970
T11 sequence (O75970 1624-1722, limits assumed, looked up): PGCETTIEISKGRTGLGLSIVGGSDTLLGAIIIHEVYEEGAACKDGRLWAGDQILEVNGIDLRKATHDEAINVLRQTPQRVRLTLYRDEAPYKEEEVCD


What was measured:
Assay in all cases: holdup assay
Set-up in all cases: key: below the threshold = too weak to quantify, mostly under pKd 3.1 to 4
Details in all cases: plain residues with an end cap or a label only (N-terminal biotin on a linker: ttds)
CASK, O14936 = biological target: CASK, O14936
Sequence of CASK, O14936 (O14936 487-570): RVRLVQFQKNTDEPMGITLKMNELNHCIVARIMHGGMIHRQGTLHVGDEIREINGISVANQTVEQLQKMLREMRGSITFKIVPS

DFNB31_3, Q9P202 = biological target: T1, DFNB31_3, Q9P202
Inadl_1, Q8NI35 = biological target: Inadl_1, Q8NI35
Sequence of Inadl_1, Q8NI35 (Q8NI35 113-229): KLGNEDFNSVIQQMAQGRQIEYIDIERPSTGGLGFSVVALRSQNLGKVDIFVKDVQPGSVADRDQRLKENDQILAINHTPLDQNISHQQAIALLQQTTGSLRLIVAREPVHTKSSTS

DLG1_3, Q12959 = biological target: DLG1_3, Q12959
Sequence of DLG1_3, Q12959 (Q12959 457-571): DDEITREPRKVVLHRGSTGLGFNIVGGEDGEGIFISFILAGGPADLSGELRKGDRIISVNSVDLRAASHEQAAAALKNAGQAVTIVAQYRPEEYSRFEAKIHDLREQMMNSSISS

DLG4_2, P78352 = biological target: DLG4_2, P78352
Sequence of DLG4_2, P78352 (P78352 155-259): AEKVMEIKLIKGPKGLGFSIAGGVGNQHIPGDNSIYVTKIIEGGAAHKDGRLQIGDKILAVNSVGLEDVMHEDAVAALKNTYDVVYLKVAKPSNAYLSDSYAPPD

TJP1_3, Q07157 = biological target: TJP1_3, Q07157
Sequence of TJP1_3, Q07157 (Q07157 416-512): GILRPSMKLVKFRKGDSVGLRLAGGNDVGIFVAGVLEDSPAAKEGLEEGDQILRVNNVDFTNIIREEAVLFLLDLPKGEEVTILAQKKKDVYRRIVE

PDZD2_2, O15018 = biological target: T2, PDZD2_2, O15018
HTRA2, O43464 = biological target: HTRA2, O43464
Sequence of HTRA2, O43464 (O43464 355-458): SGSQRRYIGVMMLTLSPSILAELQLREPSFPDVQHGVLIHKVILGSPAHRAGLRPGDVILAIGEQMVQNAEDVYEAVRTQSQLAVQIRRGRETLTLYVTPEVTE

LRRC7, Q96NW7 = biological target: T3, LRRC7, Q96NW7
LIN7B, Q9HAP6 = biological target: T4, LIN7B, Q9HAP6
GRIP2_6, Q9C0E4 = biological target: GRIP2_6, Q9C0E4
Sequence of GRIP2_6, Q9C0E4 (Q9C0E4 648-740): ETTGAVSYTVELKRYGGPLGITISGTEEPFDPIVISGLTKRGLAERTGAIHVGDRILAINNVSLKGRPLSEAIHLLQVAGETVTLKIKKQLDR

APBA3_1, O96018 = biological target: T5, APBA3_1, O96018
SIPA1L2, Q9P2F8 = biological target: T6, SIPA1L2, Q9P2F8
NHERF3_3, Q5T2W1 = biological target: T7, NHERF3_3, Q5T2W1
FRMPD4, Q14CM0 = biological target: FRMPD4, Q14CM0
Sequence of FRMPD4, Q14CM0 (Q14CM0 67-160): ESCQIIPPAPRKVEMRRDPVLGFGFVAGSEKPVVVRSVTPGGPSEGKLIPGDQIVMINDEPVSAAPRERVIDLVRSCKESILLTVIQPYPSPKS

APBA1_1, Q02410 = biological target: T8, APBA1_1, Q02410
PDLIM1, O00151 = biological target: PDLIM1, O00151
Sequence of PDLIM1, O00151 (O00151 1-87): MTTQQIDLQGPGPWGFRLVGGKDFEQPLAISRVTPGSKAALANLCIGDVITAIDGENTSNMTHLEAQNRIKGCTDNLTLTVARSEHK

GRIP1_4, Q9Y3R0 = biological target: T9, GRIP1_4, Q9Y3R0
TIAM2, Q8IVF5 = biological target: T10, TIAM2, Q8IVF5
GOPC, Q9HD26 = biological target: GOPC, Q9HD26
NHERF4_4, Q86UT5 = biological target: NHERF4_4, Q86UT5
Sequence of NHERF4_4, Q86UT5 (Q86UT5 464-550): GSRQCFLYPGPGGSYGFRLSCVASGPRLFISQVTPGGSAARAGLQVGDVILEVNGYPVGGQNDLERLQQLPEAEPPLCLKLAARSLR

IL16_4, Q14005 = biological target: IL16_4, Q14005
Sequence of IL16_4, Q14005 (Q14005 1229-1329): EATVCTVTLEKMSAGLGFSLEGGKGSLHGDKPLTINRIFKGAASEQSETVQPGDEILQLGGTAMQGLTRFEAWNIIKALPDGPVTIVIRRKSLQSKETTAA

PDZRN4_1, Q6ZMN7 = biological target: PDZRN4_1, Q6ZMN7
Sequence of PDZRN4_1, Q6ZMN7 (Q6ZMN7 213-318): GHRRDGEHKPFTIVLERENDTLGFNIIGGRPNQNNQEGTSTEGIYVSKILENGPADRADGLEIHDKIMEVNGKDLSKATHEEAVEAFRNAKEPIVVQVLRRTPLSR

MAST2, Q6P0Q8 = biological target: MAST2, Q6P0Q8
Sequence of MAST2, Q6P0Q8 (Q6P0Q8 1099-1202): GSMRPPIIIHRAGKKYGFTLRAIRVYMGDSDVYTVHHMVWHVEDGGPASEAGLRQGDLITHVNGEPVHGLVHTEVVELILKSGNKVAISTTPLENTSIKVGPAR

MPDZ_10, O75970 = biological target: T11, MPDZ_10, O75970
Inadl_6, Q8NI35 = biological target: Inadl_6, Q8NI35
Sequence of Inadl_6, Q8NI35 (Q8NI35 1058-1167): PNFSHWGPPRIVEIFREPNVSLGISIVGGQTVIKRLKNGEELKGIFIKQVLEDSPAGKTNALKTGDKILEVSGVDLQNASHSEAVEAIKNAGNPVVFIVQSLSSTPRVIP

Binder | pKd (CASK, O14936) | pKd (DFNB31_3, Q9P202) | pKd (Inadl_1, Q8NI35) | pKd (DLG1_3, Q12959) | pKd (DLG4_2, P78352) | pKd (TJP1_3, Q07157) | pKd (PDZD2_2, O15018) | pKd (HTRA2, O43464) | pKd (LRRC7, Q96NW7) | pKd (LIN7B, Q9HAP6) | pKd (GRIP2_6, Q9C0E4) | pKd (APBA3_1, O96018) | pKd (SIPA1L2, Q9P2F8) | pKd (NHERF3_3, Q5T2W1) | pKd (FRMPD4, Q14CM0) | pKd (APBA1_1, Q02410) | pKd (PDLIM1, O00151) | pKd (GRIP1_4, Q9Y3R0) | pKd (TIAM2, Q8IVF5) | pKd (GOPC, Q9HD26) | further results
SHSSKGETAV [FZD7, O75084] | below the threshold | below the threshold | below the threshold | 4.01 | 4.69 | below the threshold | 4.09 | below the threshold | below the threshold | below the threshold | 3.58 | below the threshold | below the threshold | below the threshold | 3.52 | below the threshold | below the threshold | below the threshold | below the threshold | below the threshold | pKd (NHERF4_4, Q86UT5): below the threshold; pKd (IL16_4, Q14005): below the threshold; pKd (PDZRN4_1, Q6ZMN7): 4.3; pKd (MAST2, Q6P0Q8): 5.09; pKd (MPDZ_10, O75970): below the threshold; pKd (Inadl_6, Q8NI35): below the threshold
PFRSRSPSEV [GPR6, P46095] | below the threshold | below the threshold | below the threshold | 3.81 | 3.75 | below the threshold | 3.8 | below the threshold | below the threshold | below the threshold | below the threshold | below the threshold | below the threshold | below the threshold | below the threshold | below the threshold | below the threshold | below the threshold | below the threshold | below the threshold | pKd (NHERF4_4, Q86UT5): below the threshold; pKd (IL16_4, Q14005): below the threshold; pKd (PDZRN4_1, Q6ZMN7): 3.57; pKd (MAST2, Q6P0Q8): below the threshold; pKd (MPDZ_10, O75970): below the threshold; pKd (Inadl_6, Q8NI35): below the threshold
KLVIKTETTV [RASSF6, Q6ZTQ3] | below the threshold | below the threshold | below the threshold | 4.2 | 5.48 | below the threshold | 3.65 | below the threshold | below the threshold | 3.81 | below the threshold | below the threshold | below the threshold | below the threshold | below the threshold | below the threshold | below the threshold | below the threshold | below the threshold | 3.53 | pKd (NHERF4_4, Q86UT5): below the threshold; pKd (IL16_4, Q14005): 3.49; pKd (PDZRN4_1, Q6ZMN7): 4.15; pKd (MAST2, Q6P0Q8): 5.13; pKd (MPDZ_10, O75970): below the threshold; pKd (Inadl_6, Q8NI35): below the threshold
